{"source": "paper PMC3201865", "about": "(Nucleic Acids Research, 2011)", "binders": {"B1": {"name": "recombinant full-length UHRF1 (natural protein)", "chain": "MWIQVRTMDGRQTHTVDSLSRLTKVEELRRKIQELFHVEPGLQRLFYRGKQMEDGHTLFDYEVRLNDTIQLLVRQSLVLPHSTKERDSELSDTDSGCCLGQSESDKSSTHGEAAAETDSRPADEDMWDETELGLYKVNEYVDARDTNMGAWFEAQVVRVTRKAPSRDEPCSSTSRPALEEDVIYHVKYDDYPENGVVQMNSRDVRARARTIIKWQDLEVGQVVMLNYNPDNPKERGFWYDAEISRKRETRTARELYANVVLGDDSLNDCRIIFVDEVFKIERPGEGSPMVDNPMRRKSGPSCKHCKDDVNRLCRVCACHLCGGRQDPDKQLMCDECDMAFHIYCLDPPLSSVPSEDEWYCPECRNDASEVVLAGERLRESKKKAKMASATSSSQRDWGKGMACVGRTKECTIVPSNHYGPIPGIPVGTMWRFRVQVSESGVHRPHVAGIHGRSNDGAYSLVLAGGYEDDVDHGNFFTYTGSGGRDLSGNKRTAEQSCDQKLTNTNRALALNCFAPINDQEGAEAKDWRSGKPVRVVRNVKGGKNSKYAPAEGNRYDGIYKVVKYWPEKGKSGFLVWRYLLRRDDDEPGPWTKEGKDRIKKLGLTMQYPEGYLEALANREREKENSKREEEEQQEGGFASPRTGKGKWKRKSAGGGPSRAGSPRRTSKKTKVEPYSLTAQQSSLIREDKSNAKLWNEVLASLKDRPASGSPFQLFLSKVEETFQCICCQELVFRPITTVCQHNVCKDCLDRSFRAQVFSCPACRYDLGRSYAMQVNQPLQTVLNQLFPGYGNGR"}}, "biological_target": "recombinant full-length USP7 (UniProt Q93009 1-1102)", "sequence (Q93009 whole entry)": "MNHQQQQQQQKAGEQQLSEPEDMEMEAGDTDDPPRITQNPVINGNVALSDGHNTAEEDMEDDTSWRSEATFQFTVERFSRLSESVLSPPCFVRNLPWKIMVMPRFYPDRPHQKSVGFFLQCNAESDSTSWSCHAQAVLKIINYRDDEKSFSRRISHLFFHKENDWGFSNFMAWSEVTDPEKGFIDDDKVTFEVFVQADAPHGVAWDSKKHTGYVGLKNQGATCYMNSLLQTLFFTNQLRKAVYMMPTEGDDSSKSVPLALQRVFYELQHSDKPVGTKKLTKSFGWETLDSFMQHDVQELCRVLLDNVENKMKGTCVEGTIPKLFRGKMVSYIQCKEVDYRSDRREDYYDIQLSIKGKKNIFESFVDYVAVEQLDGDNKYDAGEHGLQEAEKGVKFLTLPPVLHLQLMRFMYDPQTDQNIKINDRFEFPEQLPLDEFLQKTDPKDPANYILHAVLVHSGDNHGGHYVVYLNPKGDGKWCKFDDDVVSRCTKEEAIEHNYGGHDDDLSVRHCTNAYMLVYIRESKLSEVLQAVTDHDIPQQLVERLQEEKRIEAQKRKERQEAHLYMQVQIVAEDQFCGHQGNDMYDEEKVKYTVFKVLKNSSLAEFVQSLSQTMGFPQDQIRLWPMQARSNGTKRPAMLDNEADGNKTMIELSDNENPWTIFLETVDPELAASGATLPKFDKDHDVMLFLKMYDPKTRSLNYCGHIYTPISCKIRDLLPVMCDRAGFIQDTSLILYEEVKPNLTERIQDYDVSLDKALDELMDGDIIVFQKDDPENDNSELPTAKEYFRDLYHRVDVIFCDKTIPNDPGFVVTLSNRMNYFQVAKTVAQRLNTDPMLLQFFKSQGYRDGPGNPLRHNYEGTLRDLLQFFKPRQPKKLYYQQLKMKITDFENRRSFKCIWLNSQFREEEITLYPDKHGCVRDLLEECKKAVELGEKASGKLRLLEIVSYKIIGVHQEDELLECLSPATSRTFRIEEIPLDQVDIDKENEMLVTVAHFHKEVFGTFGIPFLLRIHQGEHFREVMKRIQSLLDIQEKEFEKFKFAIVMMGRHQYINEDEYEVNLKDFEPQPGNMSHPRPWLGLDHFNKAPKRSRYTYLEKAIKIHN", "assay": "co-IP"}
{"binder": "B1", "values": [{"measurement": "binding result", "value": "binds"}]}
